# Experimental data from patent publication US20210206866A1 (EUCURE BEIJING BIOPHARMA, published 2021).
# T1: Human OX40 protein (hOX40-His) (human, UniProt P43489 29-214)
# T1 construct: Soluble analyte in the SPR assay; also called His-tagged human OX40; not shown: His tag
# T1 sequence: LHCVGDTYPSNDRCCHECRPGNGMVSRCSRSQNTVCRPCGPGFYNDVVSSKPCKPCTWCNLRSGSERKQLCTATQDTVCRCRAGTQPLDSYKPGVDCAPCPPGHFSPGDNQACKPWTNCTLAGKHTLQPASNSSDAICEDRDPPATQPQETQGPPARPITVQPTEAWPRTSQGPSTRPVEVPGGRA
# T2: mouse OX40 on transfected CHO cells (mouse, UniProt P47741 20-272)
# T2 construct: also called mOX40
# T2 sequence: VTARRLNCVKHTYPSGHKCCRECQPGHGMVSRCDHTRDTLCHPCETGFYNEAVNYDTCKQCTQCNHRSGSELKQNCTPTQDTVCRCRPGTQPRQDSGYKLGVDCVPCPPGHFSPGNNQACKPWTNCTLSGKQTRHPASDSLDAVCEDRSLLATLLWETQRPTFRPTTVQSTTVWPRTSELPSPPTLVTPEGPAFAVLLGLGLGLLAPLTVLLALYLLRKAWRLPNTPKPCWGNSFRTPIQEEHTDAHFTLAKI
# Columns and labels:
# [1] = molecular target: T1, Human OX40 protein (hOX40-His); assay: SPR, Biacore T200, antibody captured on Protein A chip, hOX40-His as analyte, 1:1 Langmuir fit
# Description: The antibodies were tested for hOX40 binding. The affinity of an antibody was determined by surface plasmon resonance (Biacore T200 biosensor, Biacore, INC, Piscataway N.J.) equipped with pre-immobilized Protein A sensor chips.
# Anti-hOX40 antibody 9H3-mHvKv-IgG1 (1 μg/mL) were injected into Biacore T200 biosensor at 10 μL/min for 25 seconds to achieve to a desired protein density (about 112 response units (RU)). […] Dissociation was monitored for 300 seconds. The chip was regenerated after the last injection of each titration with Glycine (pH 2.0, 30 μL/min for 12 seconds).
# The same method with necessary appropriate adjustments for parameters (e.g., concentrations of the antibodies) were performed for all other tested antibodies.
# [2] = molecular target: T2, mouse OX40 on transfected CHO cells; assay: flow cytometry, CHO-mOX40 cells; anti-mIgG Fc-FITC against SSC-H
# Description: 25 ul CHO cells were added to each well. 25 ul purified anti-hOX40 antibodies (1 ug/ml) (9H3 or “07-9H3”) were added to each well and were incubated at 4° C. for 30 minutes.
# After being washed with PBS (1200 rmp, 5 min) twice, 50 ul of anti-mouse IgG Fc antibody fluorescein isothiocyanate conjugate (anti-mIgG Fc-FITC) with 1:500 dilution was added into each well and was incubated at 4° C. for 30 minutes, followed by PBS wash (1200 rmp, 5 min). The signals for FITC were determined by flow cytometry.
# [3] = molecular target: chimeric (mouse and human) OX40 on transfected CHO cells (chimeric (mouse and human)); assay: flow cytometry, CHO-chiOX40 cells; antibody at 1 ug/ml; anti-mIgG Fc-FITC (x axis) against SSC-H; NC panel of the same cells 2.78%
Binder,Kd [1],koff [1],kon [1],binding result [2],% of cells in the anti-mouse-IgGFc-FITC positive gate [3]
"9H3-H2K2-IgG1 (antibody, V domains shown, Humanized, with human IgG1 constant domains; also called 9H3 humanized antibody H2K2) VH: QVQLVESGGGVVQPGRSLRISCAVSGFSLTSYGVLWVRQAPGKGLEWVAVIWSGGSTDYNAAFISRLTISRDNSKSTVYFQMNSLRAEDTAVYYCAREEFGYWGQGTLVTVSS VL: DIQMTQSPSSLSASVGDRVTITCRASQDINNYLNWYQQKPGGAVKLLIYYTSRLHSGVPSRFSGSGSGTDFTLTISSLQPEDIATYYCQQTNTLPWTFGGGTKLEIKR",3.84 nM,0.00087 s⁻¹,227000 M⁻¹ s⁻¹,,
"mouse anti-hOX40 antibody 07-9H3 (antibody, V domains shown, Mouse IgG purified from ascites fluid) VH: QVQLKQSGPGLVQPSQSLSITCTVSGFSLTSYGVLWVRQPPGKGLEWLGVIWSGGSTDYNAAFISRLSISKDNSKSQVFFKMNSLQADDTAIYYCAREEFGYWGQGTLVTVSA VL: DIQMTQTTSSLSASLGDRVTISCRASQDINNYLNWYQQKPDGTVKLLIYYTSRLHSGVPSRFSGSGSGTDYSLTISNLEQEDIATYFCQQTNTLPWTFGGGTKLEIK",,,,no binding,33.9%
"5D10-mHvKv-IgG1 (antibody, V domains shown, Chimeric: mouse 5D10 variable domains with human IgG1 constant domains; also called 5D10 chimeric antibody) VH: QVQLKESGPGLVAPSQSLSITCTVSGFSLTSYGVHWIRQPPGKGLEWLGVIWAGGNTNYNSALMSRLSISKDNSKSQVFLKMNSLQTDDTAMYNCASYDGYYGWFAYWGQGTLVTVSV VL: DIQMTQTTSSLSASLGDRVTISCRASQDISYYLNWYQQKPDGTVKLLIYYTSRLHSGVPSRFSGSGSGTDYSLTISNLEQEDIATYFCQQGHTLPWTFGGGTKLEIK",46.5 nM,0.0147 s⁻¹,317000 M⁻¹ s⁻¹,,
"9A4-mHvKv-IgG1 (antibody, V domains shown, Chimeric: mouse 9A4 variable domains with human IgG1 constant domains; also called 9A4 chimeric antibody) VH: EVQLQQFGAELVKPGASVKISCKASGYTFTDYNMDWVKQSHGKSLEWIGDINPNYDSTSYNQKFKGKATLTVDKSSSTAYMELRSLTSEDTAVYYCARGGYGNYVDYFDYWGQGTTLTVSS VL: NIVMTQSPKSMSMSVGERVTLSCKASENVVTYVSWYQQKPEQSPKLLIYGASNRYTGVPDRFTGSGSATDFTLTISSVQAEDLADYHCGQSYSYPYTFGGGTKLEIK",55.3 nM,0.00669 s⁻¹,121000 M⁻¹ s⁻¹,,
"5C1-mHvKv-IgG1 (antibody, V domains shown, Chimeric: mouse 5C1 variable domains with human IgG1 constant domains; also called 5C1 chimeric antibody) VH: EVQLQQSGTVLARPGASVKMSCKASGYSFTSYWMHWVKQRPGQGLEWIGTIYPGNSDTSNNQKFKGKAKLTAVTSASTAYMELSSLTNEDSAVYYCTTFYYRYEDYYAMDYWGQGTSVTVSS VL: DIVMTQSHKFMSTSVGDRVSITCKASQDVNTAVAWYQQKPGQSPKLLIYSASYRYTGVPDRFTGSGSGTDFTFTISSVQAEDLAVYYCQQHYSTPFTFGSGTKLEIK",29.8 nM,0.00163 s⁻¹,54900 M⁻¹ s⁻¹,,

# More lines, in order of falling Kd [1], values ahead:
Kd [1],koff [1],kon [1],binding result [2],% of cells in the anti-mouse-IgGFc-FITC positive gate [3],Binder
21.6 nM,0.00192 s⁻¹,89100 M⁻¹ s⁻¹,,,"9A4 (mouse antibody) (antibody, V domains shown, also called 07-9A4) VH: EVQLQQFGAELVKPGASVKISCKASGYTFTDYNMDWVKQSHGKSLEWIGDINPNYDSTSYNQKFKGKATLTVDKSSSTAYMELRSLTSEDTAVYYCARGGYGNYVDYFDYWGQGTTLTVSS VL: NIVMTQSPKSMSMSVGERVTLSCKASENVVTYVSWYQQKPEQSPKLLIYGASNRYTGVPDRFTGSGSATDFTLTISSVQAEDLADYHCGQSYSYPYTFGGGTKLEIK"
3.35 nM,0.000748 s⁻¹,223000 M⁻¹ s⁻¹,,,"9H3-H2K1-IgG1 (antibody, V domains shown, Humanized, with human IgG1 constant domains (CL, CH1, CH2, CH3); also called 9H3 humanized antibody H2K1) VH: QVQLVESGGGVVQPGRSLRISCAVSGFSLTSYGVLWVRQAPGKGLEWVAVIWSGGSTDYNAAFISRLTISRDNSKSTVYFQMNSLRAEDTAVYYCAREEFGYWGQGTLVTVSS VL: DIQMTQSPSSLSASVGDRVTITCRASQDINNYLNWYQQKPGGAVKLLIYYTSRLHTGVPSRFSGSGSGTDFTLTISSLQPEDIATYYCQQTNTLPWTFGGGTKLEVKR"
3.34 nM,0.000642 s⁻¹,192000 M⁻¹ s⁻¹,,,"9H3-H3K2-IgG1 (antibody, V domains shown, Humanized, with human IgG1 constant domains; also called 9H3 humanized antibody H3K2) VH: QVQLVESGGGVVQPGRSLRISCAVSGFSLTSYGVLWVRQAPGKGLEWLGVIWSGGSTDYNAAFISRLTISRDNSKSTVYFQMNSLRAEDTAVYYCAREEFGYWGQGTLVTVSS VL: DIQMTQSPSSLSASVGDRVTITCRASQDINNYLNWYQQKPGGAVKLLIYYTSRLHSGVPSRFSGSGSGTDFTLTISSLQPEDIATYYCQQTNTLPWTFGGGTKLEIKR"
2.49 nM,0.000606 s⁻¹,244000 M⁻¹ s⁻¹,,,"9H3-H3K1-IgG1 (antibody, V domains shown, Humanized, with human IgG1 constant domains; also called 9H3 humanized antibody H3K1) VH: QVQLVESGGGVVQPGRSLRISCAVSGFSLTSYGVLWVRQAPGKGLEWLGVIWSGGSTDYNAAFISRLTISRDNSKSTVYFQMNSLRAEDTAVYYCAREEFGYWGQGTLVTVSS VL: DIQMTQSPSSLSASVGDRVTITCRASQDINNYLNWYQQKPGGAVKLLIYYTSRLHTGVPSRFSGSGSGTDFTLTISSLQPEDIATYYCQQTNTLPWTFGGGTKLEVKR"
2.31 nM,0.000594 s⁻¹,258000 M⁻¹ s⁻¹,,,"9H3-mHvKv-IgG1 (antibody, V domains shown, Chimeric: mouse 9H3 variable domains with human IgG1 constant domains (CL, CH1, CH2, CH3); also called 9H3 chimeric antibody; chimeric anti-hOX40 antibody) VH: QVQLKQSGPGLVQPSQSLSITCTVSGFSLTSYGVLWVRQPPGKGLEWLGVIWSGGSTDYNAAFISRLSISKDNSKSQVFFKMNSLQADDTAIYYCAREEFGYWGQGTLVTVSA VL: DIQMTQTTSSLSASLGDRVTISCRASQDINNYLNWYQQKPDGTVKLLIYYTSRLHSGVPSRFSGSGSGTDYSLTISNLEQEDIATYFCQQTNTLPWTFGGGTKLEIK"
1.92 nM,0.000451 s⁻¹,235000 M⁻¹ s⁻¹,,,"9H3-H3K3-IgG1 (antibody, V domains shown, Humanized, with human IgG1 constant domains; also called 9H3 humanized antibody H3K3) VH: QVQLVESGGGVVQPGRSLRISCAVSGFSLTSYGVLWVRQAPGKGLEWLGVIWSGGSTDYNAAFISRLTISRDNSKSTVYFQMNSLRAEDTAVYYCAREEFGYWGQGTLVTVSS VL: DIQMTQSPSSLSASVGDRVTITCRASQDINNYLNWYQQKPGGAVKLLIYYTSRLHSGVPSRFSGSGSGTDYTLTISSLQPEDIATYFCQQTNTLPWTFGGGTKLEIKR"
1.55 nM,0.000393 s⁻¹,254000 M⁻¹ s⁻¹,,,"9H3-H2K3-IgG1 (antibody, V domains shown, Humanized, with human IgG1 constant domains; also called 9H3 humanized antibody H2K3) VH: QVQLVESGGGVVQPGRSLRISCAVSGFSLTSYGVLWVRQAPGKGLEWVAVIWSGGSTDYNAAFISRLTISRDNSKSTVYFQMNSLRAEDTAVYYCAREEFGYWGQGTLVTVSS VL: DIQMTQSPSSLSASVGDRVTITCRASQDINNYLNWYQQKPGGAVKLLIYYTSRLHSGVPSRFSGSGSGTDYTLTISSLQPEDIATYFCQQTNTLPWTFGGGTKLEIKR"
